Legend:
Assay in all cases: cell-based or functional assay
[1] = biological target: HIV-1 Env of isolate 92RW008 (pseudovirus) (HIV-1)
[2] = biological target: HIV-1 Env of isolate 92TH021 (pseudovirus) (HIV-1)
[3] = biological target: HIV-1 Env of isolate 92UG031 (pseudovirus) (HIV-1)
[4] = biological target: HIV-1 Env of isolate 92UG037 (pseudovirus) (HIV-1)
[5] = biological target: HIV-1 Env of isolate 92WR009 (pseudovirus) (HIV-1)
[6] = biological target: HIV-1 Env of isolate 92WR020 (pseudovirus) (HIV-1)
[7] = biological target: HIV-1 Env of isolate 92WR021 (pseudovirus) (HIV-1)
[8] = biological target: HIV-1 Env of isolate 92WR024 (pseudovirus) (HIV-1)
[9] = biological target: HIV-1 Env of isolate 92WR026 (pseudovirus) (HIV-1)
[10] = biological target: HIV-1 Env of isolate 93UG077 (pseudovirus) (HIV-1)
[11] = biological target: HIV-1 Env of isolate 93WR029 (pseudovirus) (HIV-1)
[12] = biological target: HIV-1 Env of isolate 94KE105 (pseudovirus) (HIV-1)
[13] = biological target: HIV-1 Env of isolate 94UG103 (pseudovirus) (HIV-1)
[14] = biological target: HIV-1 Env of isolate CMU02 (pseudovirus) (HIV-1)
[15] = biological target: HIV-1 Env of isolate MGRM-A-001 (pseudovirus) (HIV-1)
[16] = biological target: HIV-1 Env of isolate MGRM-A-002 (pseudovirus) (HIV-1)
[17] = biological target: HIV-1 Env of isolate MGRM-A-003 (pseudovirus) (HIV-1)
[18] = biological target: HIV-1 Env of isolate MGRM-A-004 (pseudovirus) (HIV-1)
[19] = biological target: HIV-1 Env of isolate MGRM-A-005 (pseudovirus) (HIV-1)
[20] = biological target: HIV-1 Env of isolate MGRM-A-006 (pseudovirus) (HIV-1)
[21] = biological target: HIV-1 Env of isolate MGRM-A-007 (pseudovirus) (HIV-1)
[22] = biological target: HIV-1 Env of isolate MGRM-A-008 (pseudovirus) (HIV-1)
[23] = biological target: HIV-1 Env of isolate MGRM-A-009 (pseudovirus) (HIV-1)
[24] = biological target: HIV-1 Env of isolate MGRM-A-010 (pseudovirus) (HIV-1)
[25] = biological target: HIV-1 Env of isolate MGRM-A-011 (pseudovirus) (HIV-1)
[26] = biological target: HIV-1 Env of isolate MGRM-A-012 (pseudovirus) (HIV-1)
[27] = biological target: HIV-1 Env of isolate MGRM-A-013 (pseudovirus) (HIV-1)
[28] = biological target: HIV-1 Env of isolate MGRM-A-014 (pseudovirus) (HIV-1)
[29] = biological target: HIV-1 Env of isolate MGRM-AE-001 (pseudovirus) (HIV-1)
[30] = biological target: HIV-1 Env of isolate MGRM-AE-002 (pseudovirus) (HIV-1)
[31] = biological target: HIV-1 Env of isolate MGRM-AE-003 (pseudovirus) (HIV-1)
[32] = biological target: HIV-1 Env of isolate VLGCA1 (pseudovirus) (HIV-1)
[33] = biological target: HIV-1 Env of isolate 92BR020 (pseudovirus) (HIV-1)
[34] = biological target: HIV-1 Env of isolate JR-CSF (pseudovirus) (HIV-1) (UniProt P20871)
[35] = biological target: HIV-1 Env of isolate MGRM-C-026 (pseudovirus) (HIV-1)

**Q.** Which results are given for PGT-121 (4838_L06; 4873_E03) (antibody)?
**A.** IC50 (µg/mL), pseudovirus neutralization [1]: 0.003 µg/mL; IC50 (µg/mL), pseudovirus neutralization [2]: > 50 µg/mL; IC50 (µg/mL), pseudovirus neutralization [3]: > 50 µg/mL; IC50 (µg/mL), pseudovirus neutralization [4]: 0.031 µg/mL; IC50 (µg/mL), pseudovirus neutralization [5]: 1.74 µg/mL; IC50 (µg/mL), pseudovirus neutralization [6]: 0.004 µg/mL; IC50 (µg/mL), pseudovirus neutralization [7]: 0.009 µg/mL; IC50 (µg/mL), pseudovirus neutralization [8]: > 50 µg/mL; IC50 (µg/mL), pseudovirus neutralization [9]: 0.014 µg/mL; IC50 (µg/mL), pseudovirus neutralization [10]: 0.019 µg/mL; IC50 (µg/mL), pseudovirus neutralization [11]: > 50 µg/mL; IC50 (µg/mL), pseudovirus neutralization [12]: 0.029 µg/mL; IC50 (µg/mL), pseudovirus neutralization [13]: 2.52 µg/mL; IC50 (µg/mL), pseudovirus neutralization [14]: > 50 µg/mL; IC50 (µg/mL), pseudovirus neutralization [15]: > 50 µg/mL; IC50 (µg/mL), pseudovirus neutralization [16]: 0.013 µg/mL; IC50 (µg/mL), pseudovirus neutralization [17]: 0.435 µg/mL; IC50 (µg/mL), pseudovirus neutralization [18]: > 50 µg/mL; IC50 (µg/mL), pseudovirus neutralization [19]: > 50 µg/mL; IC50 (µg/mL), pseudovirus neutralization [20]: 0.396 µg/mL; IC50 (µg/mL), pseudovirus neutralization [21]: > 50 µg/mL; IC50 (µg/mL), pseudovirus neutralization [22]: > 50 µg/mL; IC50 (µg/mL), pseudovirus neutralization [23]: 0.006 µg/mL; IC50 (µg/mL), pseudovirus neutralization [24]: 2.44 µg/mL; IC50 (µg/mL), pseudovirus neutralization [25]: > 50 µg/mL; IC50 (µg/mL), pseudovirus neutralization [26]: 0.092 µg/mL; IC50 (µg/mL), pseudovirus neutralization [27]: 0.387 µg/mL; IC50 (µg/mL), pseudovirus neutralization [28]: 0.003 µg/mL; IC50 (µg/mL), pseudovirus neutralization [29]: > 50 µg/mL; IC50 (µg/mL), pseudovirus neutralization [30]: > 50 µg/mL; IC50 (µg/mL), pseudovirus neutralization [31]: > 50 µg/mL; IC50 (µg/mL), pseudovirus neutralization [32]: > 50 µg/mL

**Q.** What does the source list for 4873_E03 (PGT-121) (antibody)?
**A.** Primary Neutralization Index (B cell culture supernatant) [33]: 3.6; Primary Neutralization Index (B cell culture supernatant) [13]: 0.8; Primary Neutralization Index (B cell culture supernatant) [34]: 2.2; Primary Neutralization Index (B cell culture supernatant) [35]: 371

Reference: US20250320281A1
